The assay deals with T1, hPDL1(19-239)-TVMV-His (human, UniProt Q9NZQ7 19-239).
T1 construct: The text says amino acids 18-239, the construct name says 19-239; Expressed in HEK293T cells; Used at 10 nM final in the HTRF assay; also called PD-L1-His; PD-L1-TVMV-His
Put plainly: HTRF competition, PD-1-Ig binding to PD-L1-His. As to the method:
All binding studies were performed in an HTRF assay buffer consisting of dPBS supplemented with 0.1% (w/v) bovine serum albumin and 0.05% (v/v) Tween-20. […] PD-L1 fusion proteins from either human, cynomologous macaques, or mouse were used. HTRF detection was achieved using europium crypate-labeled anti-Ig monoclonal antibody (1 nM final) and allophycocyanin (APC) labeled anti-His monoclonal antibody (20 nM final). Antibodies were diluted in HTRF detection buffer and 5 μl was dispensed on top of binding reaction. The reaction was allowed to equilibrate for 30 minutes and signal (665 nm/620 nm ratio) was obtained using an EnVision fluorometer. […]
HTRF Experiments were performed essentially as outlined supra. Variant macrocyclic peptides were created as outlined herein.
For orientation: Time-resolved FRET reads energy transfer from a long-lived donor to a nearby acceptor.

Positions of bridges follow the written chain, without caps; N, C: chain ends. Non-standard residues stand in square brackets, D forms with d. NMeNle = CCCC[C@H](NC)C(=O)O; αMeP = C[C@@]1(C(=O)O)CCCN1; NMeA = CN[C@@H](C)C(=O)O; dNMeA = CN[C@H](C)C(=O)O; Aze = O=C(O)[C@@H]1CCN1; Sar = CNCC(=O)O

T1 sequence (Q9NZQ7 other isoform, or with tags, fused parts or gaps limits assumed): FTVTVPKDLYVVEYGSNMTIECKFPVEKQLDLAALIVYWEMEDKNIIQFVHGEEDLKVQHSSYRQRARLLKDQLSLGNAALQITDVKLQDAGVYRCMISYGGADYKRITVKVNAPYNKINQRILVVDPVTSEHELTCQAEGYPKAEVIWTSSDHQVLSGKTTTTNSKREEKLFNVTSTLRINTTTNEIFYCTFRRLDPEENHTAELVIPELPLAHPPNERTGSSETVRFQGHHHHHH

B1: Compound No. 5 (peptide)
peptide: {CH2CO}-A[NMeA]NPHL[Sar]WSW[NMeNle][NMeNle]RCG-NH2
modifications: thioether N-14
SMILES: CCCC[C@H]1C(=O)N(C)[C@@H](CCCC)C(=O)N[C@@H](CCCNC(=N)N)C(=O)N[C@H](C(=O)NCC(N)=O)CSCC(=O)N[C@@H](C)C(=O)N(C)[C@@H](C)C(=O)N[C@@H](CC(N)=O)C(=O)N2CCC[C@H]2C(=O)N[C@@H](Cc2c[nH]cn2)C(=O)N[C@@H](CC(C)C)C(=O)N(C)CC(=O)N[C@@H](Cc2c[nH]c3ccccc23)C(=O)N[C@@H](CO)C(=O)N[C@@H](Cc2c[nH]c3ccccc23)C(=O)N1C
In turn, B1 displayed an IC50 of 6500 nM.

B2: Compound No. 10 (peptide)
peptide: {CH2CO}-F[NMeA]NPAL[Sar]WSW[NMeNle][NMeNle]RCG-NH2
modifications: thioether N-14
SMILES: CCCC[C@H]1C(=O)N(C)[C@@H](CCCC)C(=O)N[C@@H](CCCNC(=N)N)C(=O)N[C@H](C(=O)NCC(N)=O)CSCC(=O)N[C@@H](Cc2ccccc2)C(=O)N(C)[C@@H](C)C(=O)N[C@@H](CC(N)=O)C(=O)N2CCC[C@H]2C(=O)N[C@@H](C)C(=O)N[C@@H](CC(C)C)C(=O)N(C)CC(=O)N[C@@H](Cc2c[nH]c3ccccc23)C(=O)N[C@@H](CO)C(=O)N[C@@H](Cc2c[nH]c3ccccc23)C(=O)N1C
B2 came in with a 50% inhibitory concentration (IC50) of 16 nM.

B3: Compound No. 14 (peptide)
peptide: {CH2CO}-F[NMeA]NPHL[dNMeA]WSW[NMeNle][NMeNle]RCG-NH2
modifications: thioether N-14
SMILES: CCCC[C@H]1C(=O)N(C)[C@@H](CCCC)C(=O)N[C@@H](CCCNC(=N)N)C(=O)N[C@H](C(=O)NCC(N)=O)CSCC(=O)N[C@@H](Cc2ccccc2)C(=O)N(C)[C@@H](C)C(=O)N[C@@H](CC(N)=O)C(=O)N2CCC[C@H]2C(=O)N[C@@H](Cc2c[nH]cn2)C(=O)N[C@@H](CC(C)C)C(=O)N(C)[C@H](C)C(=O)N[C@@H](Cc2c[nH]c3ccccc23)C(=O)N[C@@H](CO)C(=O)N[C@@H](Cc2c[nH]c3ccccc23)C(=O)N1C
For B3, the IC50 amounted to 59 nM.

B4: Compound No. 13 (peptide)
peptide: {CH2CO}-F[NMeA]NPHL[NMeA]WSW[NMeNle][NMeNle]RCG-NH2
modifications: thioether N-14
SMILES: CCCC[C@H]1C(=O)N(C)[C@@H](CCCC)C(=O)N[C@@H](CCCNC(=N)N)C(=O)N[C@H](C(=O)NCC(N)=O)CSCC(=O)N[C@@H](Cc2ccccc2)C(=O)N(C)[C@@H](C)C(=O)N[C@@H](CC(N)=O)C(=O)N2CCC[C@H]2C(=O)N[C@@H](Cc2c[nH]cn2)C(=O)N[C@@H](CC(C)C)C(=O)N(C)[C@@H](C)C(=O)N[C@@H](Cc2c[nH]c3ccccc23)C(=O)N[C@@H](CO)C(=O)N[C@@H](Cc2c[nH]c3ccccc23)C(=O)N1C
On to B4, for which the IC50 amounted to 16 nM.

B5: Compound No. 16 (peptide)
peptide: {CH2CO}-F[NMeA]NPHL[Sar]WAW[NMeNle][NMeNle]RCG-NH2
modifications: thioether N-14
SMILES: CCCC[C@H]1C(=O)N(C)[C@@H](CCCC)C(=O)N[C@@H](CCCNC(=N)N)C(=O)N[C@H](C(=O)NCC(N)=O)CSCC(=O)N[C@@H](Cc2ccccc2)C(=O)N(C)[C@@H](C)C(=O)N[C@@H](CC(N)=O)C(=O)N2CCC[C@H]2C(=O)N[C@@H](Cc2c[nH]cn2)C(=O)N[C@@H](CC(C)C)C(=O)N(C)CC(=O)N[C@@H](Cc2c[nH]c3ccccc23)C(=O)N[C@@H](C)C(=O)N[C@@H](Cc2c[nH]c3ccccc23)C(=O)N1C
As to B5, the half-inhibitory concentration (IC50) was found to be 5 nM.

B6: Compound No. 7 (peptide)
peptide: {CH2CO}-F[Sar]NPHL[Sar]WSW[NMeNle][NMeNle]RCG-NH2
modifications: thioether N-14
SMILES: CCCC[C@H]1C(=O)N(C)[C@@H](CCCC)C(=O)N[C@@H](CCCNC(=N)N)C(=O)N[C@H](C(=O)NCC(N)=O)CSCC(=O)N[C@@H](Cc2ccccc2)C(=O)N(C)CC(=O)N[C@@H](CC(N)=O)C(=O)N2CCC[C@H]2C(=O)N[C@@H](Cc2c[nH]cn2)C(=O)N[C@@H](CC(C)C)C(=O)N(C)CC(=O)N[C@@H](Cc2c[nH]c3ccccc23)C(=O)N[C@@H](CO)C(=O)N[C@@H](Cc2c[nH]c3ccccc23)C(=O)N1C
In turn, B6 had a concentration for half-maximal inhibition (IC50) of 55 nM.

B7: Compound No. 11 (peptide)
peptide: {CH2CO}-F[NMeA]NPHA[Sar]WSW[NMeNle][NMeNle]RCG-NH2
modifications: thioether N-14
SMILES: CCCC[C@H]1C(=O)N(C)[C@@H](CCCC)C(=O)N[C@@H](CCCNC(=N)N)C(=O)N[C@H](C(=O)NCC(N)=O)CSCC(=O)N[C@@H](Cc2ccccc2)C(=O)N(C)[C@@H](C)C(=O)N[C@@H](CC(N)=O)C(=O)N2CCC[C@H]2C(=O)N[C@@H](Cc2c[nH]cn2)C(=O)N[C@@H](C)C(=O)N(C)CC(=O)N[C@@H](Cc2c[nH]c3ccccc23)C(=O)N[C@@H](CO)C(=O)N[C@@H](Cc2c[nH]c3ccccc23)C(=O)N1C
For B7, the IC50 was found to be 31 nM.

B8: Compound No. 8 (peptide)
peptide: {CH2CO}-F[NMeA]APHL[Sar]WSW[NMeNle][NMeNle]RCG-NH2
modifications: thioether N-14
SMILES: CCCC[C@H]1C(=O)N(C)[C@@H](CCCC)C(=O)N[C@@H](CCCNC(=N)N)C(=O)N[C@H](C(=O)NCC(N)=O)CSCC(=O)N[C@@H](Cc2ccccc2)C(=O)N(C)[C@@H](C)C(=O)N[C@@H](C)C(=O)N2CCC[C@H]2C(=O)N[C@@H](Cc2c[nH]cn2)C(=O)N[C@@H](CC(C)C)C(=O)N(C)CC(=O)N[C@@H](Cc2c[nH]c3ccccc23)C(=O)N[C@@H](CO)C(=O)N[C@@H](Cc2c[nH]c3ccccc23)C(=O)N1C
B8 showed an IC50 of 31 nM.

B9: Compound No. 49 (peptide)
peptide: {CH2CO}-F[NMeA]N[αMeP]HL[Sar]WSW[NMeNle][NMeNle]RCG-NH2
modifications: thioether N-14
SMILES: CCCC[C@H]1C(=O)N(C)[C@@H](CCCC)C(=O)N[C@@H](CCCNC(=N)N)C(=O)N[C@H](C(=O)NCC(N)=O)CSCC(=O)N[C@@H](Cc2ccccc2)C(=O)N(C)[C@@H](C)C(=O)N[C@@H](CC(N)=O)C(=O)N2CCC[C@@]2(C)C(=O)N[C@@H](Cc2c[nH]cn2)C(=O)N[C@@H](CC(C)C)C(=O)N(C)CC(=O)N[C@@H](Cc2c[nH]c3ccccc23)C(=O)N[C@@H](CO)C(=O)N[C@@H](Cc2c[nH]c3ccccc23)C(=O)N1C
As to B9, the IC50 amounted to 34 nM.

B10: Compound No. 50 (peptide)
peptide: {CH2CO}-F[NMeA]N[Aze]HL[Sar]WSW[NMeNle][NMeNle]RCG-NH2
modifications: thioether N-14
SMILES: CCCC[C@H]1C(=O)N(C)[C@@H](CCCC)C(=O)N[C@@H](CCCNC(=N)N)C(=O)N[C@H](C(=O)NCC(N)=O)CSCC(=O)N[C@@H](Cc2ccccc2)C(=O)N(C)[C@@H](C)C(=O)N[C@@H](CC(N)=O)C(=O)N2CC[C@H]2C(=O)N[C@@H](Cc2c[nH]cn2)C(=O)N[C@@H](CC(C)C)C(=O)N(C)CC(=O)N[C@@H](Cc2c[nH]c3ccccc23)C(=O)N[C@@H](CO)C(=O)N[C@@H](Cc2c[nH]c3ccccc23)C(=O)N1C
B10 came in with an IC50 of 71 nM.

As usually defined, the IC50 is the concentration needed to halve the response being measured.
